From US20260265334A1, “STAPLED PEPTIDES” (THE FLOREY INSTITUTE OF NEUROSCIENCE AND MENTAL HEALTH, priority 2023, published 2026)
Bridge positions count the residues as written; N and C are the ends. Square brackets hold non-standard residues; d marks the D form. Ends that are not written are not given here. Peptide text beside a SMILES is read from it. I, II: the chains in the order shown. αMeF = C[C@](N)(Cc1ccccc1)C(=O)O; S5 = C=CCCC[C@](C)(N)C(=O)O; αMeC = C[C@](N)(CS)C(=O)O

B1: Linear B-chain (INSL5 B chain analogue, Formula IV) (peptide)
peptide: SGLEYIRTVIYISGGSRW-OH
notes: Residues numbered 7-24 after the native INSL5 B chain; also called control
B2: Disulfide bridge stapled analogue (INSL5 B-chain, Formula IX) (peptide)
peptide: Ac-SGL[αMeC]YIR[αMeC]VIYISGGSRW
modifications: disulfide 4-8
notes: also called disulfide stapled analogue
B3: INSL5-A13 (two-chain INSL5 analogue, RXFP4 agonist) (ligand)
chain 1: CTDGASMKDLSALC
chain 2: KESVRLCGLEYIRTVIYICASSRW
modifications: disulfide I:1-II:7, I:14-II:19
notes: Disulfide bonds: Cys 1 of A chain to Cys 7 of B chain; Cys 14 of A chain to Cys 19 of B chain; also called Analogue 13; two chain agonist
B4: INSL5-A13: B7-24_G20/21 (two-chain G20/21 analogue) (ligand)
chain 1: CTDGASMKDLSALC
chain 2: CGLEYIRTVIYICGGSRW
notes: GlyGly at positions B20 and B21; also called Formula III
B5: INSL5-A13: B7-24 (reduced two chain analogue) (ligand)
chain 1: CTDGASMKDLSALC
chain 2: CGLEYIRTVIYICASSRW
modifications: not fully specified; cysteine pairing not given here
notes: also called Formula II
B6: Lactam Bridge stapled analogue (INSL5 B-chain, Formula VII) (peptide)
peptide: SGLKYIRDVIYISGASRW
modifications: lactam 4-8
B7: αF stapled analogue (INSL5 B-chain, Formula V) (peptide)
peptide: SGL[αMeF]YIR[αMeF]VIYISGGSRW
notes: 18-residue RXFP4 agonist; also called aF stapled analogue; πI5B
B8: Hydrocarbon stapled analogue (INSL5 B-chain, Formula VI) (peptide)
peptide: Ac-SGL[S5]YIR[S5]VIYISGASRW
modifications: staple 4-8
B9: πI5B7-24-GG-S19E (peptide)
peptide: SGL[αMeF]YIR[αMeF]VIYIEGGSRW
notes: 18-residue RXFP4 agonist with two αF residues and glutamic acid at residue 19 (numbering of native INSL5 B chain)
B10: Native INSL5 (human insulin-like peptide 5) (ligand)
chain 1: ZDLQTLCCTDGCSMTDLSALC
chain 2: KESVRLCGLEYIRTVIYICASSRW

Key:
RXFP4 [1] = biological target: T1, RXFP4 (Homo sapiens, UniProt Q8TDU9); test: Eu-R3/I5 competition binding assay in CHO-K1-RXFP4 cells; parameters: expressed in transfected cells
Description: An Eu-R3/15 competition binding assay in CHO-K1-RXFP4 cells was carried out.
Competition binding curves for each peptide were performed in triplicate and each experiment was performed independently at least three times. Fluorescent measurements were carried out at excitation of 340 nm and emission of 614 nm on a BMG POLARstar plate reader (BMG Labtech, Melbourne, Australia). Pooled data were presented as mean±S.E.M. of specific binding and are fitted using a one-site binding curve in GraphPad Prism version 8 (GraphPad Inc., San Diego, USA). Statistical analyses were conducted using one-way analysis of variance with uncorrected Fisher's least significant difference (LSD) post-hoc analysis in GraphPad Prism version 9.
(§1) An additional analogue of INSL5 was utilised as a control, INSL5-A13, having an A chain (SEQ ID NO: 9) and a B chain (SEQ ID NO: 10) with a first disulfide bond between Cys 1 of the A chain and Cys 7 of the B chain, and a second disulfide bond between Cys 14 of the A chain and Cys 19 of the B chain:
(§2) Competition binding and cAMP activity assay were conducted by a procedure analogous to that described above for Example 3. The results are shown in FIG. 24 (RXFP3) and FIG. 25 (RXFP4).

RXFP4 [2] = biological target: T1, RXFP4; test: Inhibition of forskolin-induced cAMP activity in CHO-K1-RXFP4 cells (pCRE β-galactosidase reporter); type: cell-based; parameters: expressed in transfected cells
Description: For agonist assays, cells were stimulated with forskolin (5 μM for RXFP3, 1 μM for RXFP4)±increasing concentrations of each peptide for 6 hours. Data were expressed as the % forskolin activity, whereby 100% was defined as forskolin alone and 0% as maximum agonist stimulation (1 μM Analogue 2 for RXFP3 and 1 μM Analogue 13 for RXFP4). Data were analysed and plotted using GraphPad Prism 9 and are expressed as the mean±SEM of the pooled data. Statistical analysis was conducted using one-way ANOVA with Uncorrected Fisher's LSD post-hoc analysis using GraphPad Prism 9.
as §1, §2

[3] = biological target: T2, RXFP4 (relaxin family peptide receptor 4) on CHO-K1-RXFP4 cells (UniProt Q8TDU9 1-374, limits assumed); test: cell-based or functional assay
[4] = biological target: T2, RXFP4 (relaxin family peptide receptor …); test: competition with Eu-R3/I5 on CHO-K1-RXFP4 cells
[5] = biological target: T3, LgBiT-RXFP4 (HEK-LgBiT-RXFP4 crude membrane fractions) (UniProt Q8TDU9 1-374); test: NanoBiT competition with 2 nM SmBiT-R3/I5 on HEK-LgBiT-RXFP4 membranes
T3 construct: Assayed as crude membrane fractions (25 µg protein) of HEK cells; not shown: LgBiT tag of NanoBiT
T3 sequence (Q8TDU9 whole entry): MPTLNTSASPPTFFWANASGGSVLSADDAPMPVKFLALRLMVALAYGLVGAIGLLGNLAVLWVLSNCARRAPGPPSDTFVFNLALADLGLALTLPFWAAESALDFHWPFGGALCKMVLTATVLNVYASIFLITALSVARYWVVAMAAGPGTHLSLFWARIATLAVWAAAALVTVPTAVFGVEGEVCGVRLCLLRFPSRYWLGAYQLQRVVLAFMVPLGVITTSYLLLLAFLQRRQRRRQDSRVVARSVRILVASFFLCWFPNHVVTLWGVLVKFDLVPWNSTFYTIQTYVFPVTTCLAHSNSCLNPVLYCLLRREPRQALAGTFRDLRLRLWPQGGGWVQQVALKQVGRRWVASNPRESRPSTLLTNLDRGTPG

T1 sequence (Q8TDU9 whole entry): as above
T2 sequence (Q8TDU9 whole entry): as above

Molecule	cAMP pEC50 [3]	pKi [4]	pKi [5]	further results
CC[C@H](C)[C@H](NC(=O)[C@H](Cc1ccc(O)cc1)NC(=O)[C@@H](NC(=O)[C@@H](NC(=O)[C@]1(C)CSSC[C@](C)(NC(=O)[C@H](CC(C)C)NC(=O)CNC(=O)[C@H](CO)NC(C)=O)C(=O)N[C@@H](Cc2ccc(O)cc2)C(=O)N[C@@H]([C@@H](C)CC)C(=O)N[C@@H](CCCNC(=N)N)C(=O)N1)C(C)C)[C@@H](C)CC)C(=O)N[C@@H](CO)C(=O)NCC(=O)NCC(=O)N[C@@H](CO)C(=O)N[C@@H](CCCNC(=N)N)C(=O)N[C@@H](Cc1c[nH]c2ccccc12)C(=O)O [Disulfide bridge stapled analogue] (Ac-SGL[αMeC]YIR[αMeC]VIYISGGSRW-OH; disulfide 4-8; C-terminus assumed)				Ki (RXFP4 [1]): 46.8 nM; EC50 (RXFP4 [2]): 145 nM
SGLEYIRTVIYISGGSRW-OH [Linear B-chain, S-G-L-E-Y-I-R-T-V-I-Y-I-S-G-G-S-R-W-OH]				Eu-R3/I5 pKi (RXFP4 [1]; RXFP4, Table 5): No binding (3)
B1	< 5			binding result [4]: no binding
B2	6.84	7.33		
B3	8.1	7.46	8.11	
B4	8.93		8.64	
B5	8.08		8.06	
B6			6.45	
B7	7.06	6.8	7.51	
B8	6.18		6.81	
B9	7.39		8.13	
B10	8.34	8.43	8.47	
